Measurements published in patent publication US20200140562A1 (Innovent, published 2020).

Key:
[1] = biological target: T1, human OX40 on cells (CHO-hOX40, 293HEK-hOX40, Jurkat-hOX40, activated primary CD4+ T cells) (human, UniProt P43489 29-277); test: flow cytometry, CHO-hOX40, 0.09765625 nM
T1 construct: whole, on cells; The cell type is told in each assay; also called CHO-OX40
T1 sequence (looked up): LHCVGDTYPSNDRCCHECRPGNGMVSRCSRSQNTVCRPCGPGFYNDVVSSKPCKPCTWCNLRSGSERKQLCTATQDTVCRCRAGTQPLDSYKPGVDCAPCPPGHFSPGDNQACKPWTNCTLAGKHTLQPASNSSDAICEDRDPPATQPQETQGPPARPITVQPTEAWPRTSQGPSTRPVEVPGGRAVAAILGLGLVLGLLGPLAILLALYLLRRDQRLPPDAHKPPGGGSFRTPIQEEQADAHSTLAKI

[2] = biological target: T1, human OX40 on cells (CHO-hOX40, …); test: flow cytometry, CHO-hOX40, 0.024414063 nM
[3] = biological target: T1, human OX40 on cells (CHO-hOX40, …); test: flow cytometry, CHO-hOX40, 0.78125 nM
[4] = biological target: T1, human OX40 on cells (CHO-hOX40, …); test: flow cytometry, CHO-hOX40, 3.125 nM
[5] = biological target: T1, human OX40 on cells (CHO-hOX40, …); test: flow cytometry, CHO-hOX40, 12.5 nM
[6] = biological target: T1, human OX40 on cells (CHO-hOX40, …); test: flow cytometry, CHO-hOX40, 0.390625 nM
[7] = biological target: T1, human OX40 on cells (CHO-hOX40, …); test: flow cytometry, CHO-hOX40, 6.25 nM
[8] = biological target: T1, human OX40 on cells (CHO-hOX40, …); test: flow cytometry, CHO-hOX40, 100 nM
[9] = biological target: T1, human OX40 on cells (CHO-hOX40, …); test: flow cytometry, CHO-hOX40, 50 nM
[10] = biological target: T1, human OX40 on cells (CHO-hOX40, …); test: flow cytometry, CHO-hOX40, 25 nM
[11] = biological target: T1, human OX40 on cells (CHO-hOX40, …); test: flow cytometry, CHO-hOX40, 0.1953125 nM
[12] = biological target: T1, human OX40 on cells (CHO-hOX40, …); test: flow cytometry, CHO-hOX40, 200 nM
[13] = biological target: T1, human OX40 on cells (CHO-hOX40, …); test: flow cytometry, CHO-hOX40, 12.5 nM; remark: listed apart in the source
[14] = biological target: T1, human OX40 on cells (CHO-hOX40, …); test: flow cytometry, CHO-hOX40, 0.024414063 nM; remark: listed apart in the source
[15] = biological target: T1, human OX40 on cells (CHO-hOX40, …); test: flow cytometry, CHO-hOX40, 100 nM; remark: listed apart in the source
[16] = biological target: T1, human OX40 on cells (CHO-hOX40, …); test: flow cytometry, CHO-hOX40, 3.125 nM; remark: listed apart in the source
[17] = biological target: T1, human OX40 on cells (CHO-hOX40, …); test: flow cytometry, CHO-hOX40, 200 nM; remark: listed apart in the source
[18] = biological target: T1, human OX40 on cells (CHO-hOX40, …); test: flow cytometry, CHO-hOX40, 0.048828125 nM
[19] = biological target: T1, human OX40 on cells (CHO-hOX40, …); test: flow cytometry, CHO-hOX40, 6.25 nM; remark: listed apart in the source
[20] = biological target: T1, human OX40 on cells (CHO-hOX40, …); test: flow cytometry, CHO-hOX40

B1: OX40L (control reagent; recombinant OX40L, Acro Biosystems) (ligand, UniProt P23510 51-183, looked up)
chain: QVSHRYPRIQSIKVQFTEYKKEKGFILTSQKEDEIMKVQNNSVIINCDGFYLISLKGYFSQEVNISLHYQKDEEPLFQLKKVRSVNSLMVASLTYKDKVYLNVTTDNTSLDDFHVNGGELILIHQNPGEFCVL
notes: may be the same reagent as OX40L-hFc
- MFI [1]: 14500 MFI
- MFI [2]: 7970 MFI
- MFI [3]: 317000 MFI
- MFI [4]: 342000 MFI
- MFI [5]: 1.11e+06 MFI
- MFI [6]: 119000 MFI
- MFI [7]: 600000 MFI
- MFI [8]: 2.57e+06 MFI
- MFI [9]: 2.72e+06 MFI
- MFI [10]: 1.84e+06 MFI
- MFI [11]: 24800 MFI
- MFI [12]: 2.68e+06 MFI
- MFI [13]: 1.99e+06 MFI
- MFI [14]: 12800 MFI
- MFI [15]: 2.51e+06 MFI
- MFI [16]: 932000 MFI
- MFI [17]: 2.08e+06 MFI
- MFI [18]: 8350 MFI
- MFI [19]: 1.48e+06 MFI
- EC50 [20]: 0.0124 µM
